{"source": "the supplement of paper PMC10567573", "parents": {"B1": {"name": "OR10K2 (parent)", "chain": "SLARLQQLLFVIFLLLYLFTLGTN"}}, "data": [{"variants_of": "B1", "assay": "protein stability index of a GFP-peptide fusion (GPS, HEK-293T) (PSI 1-6); higher = more stable", "details": "c terminus: a fixed tail appended", "values": [{"variant": "ALARLQQLLFVIFLLLYLFTLGTN", "protein stability index": 2.7}, {"variant": "CLARLQQLLFVIFLLLYLFTLGTN", "protein stability index": 2.44}, {"variant": "DLARLQQLLFVIFLLLYLFTLGTN", "protein stability index": 1.54}, {"variant": "ELARLQQLLFVIFLLLYLFTLGTN", "protein stability index": 2.11}, {"variant": "FLARLQQLLFVIFLLLYLFTLGTN", "protein stability index": 1.35}, {"variant": "GLARLQQLLFVIFLLLYLFTLGTN", "protein stability index": 2.86}, {"variant": "HLARLQQLLFVIFLLLYLFTLGTN", "protein stability index": 2.88}, {"variant": "ILARLQQLLFVIFLLLYLFTLGTN", "protein stability index": 2.21}, {"variant": "KLARLQQLLFVIFLLLYLFTLGTN", "protein stability index": 2.87}, {"variant": "LLARLQQLLFVIFLLLYLFTLGTN", "protein stability index": 3.72}, {"variant": "MLARLQQLLFVIFLLLYLFTLGTN", "protein stability index": 3.25}, {"variant": "NLARLQQLLFVIFLLLYLFTLGTN", "protein stability index": 2.38}, {"variant": "PLARLQQLLFVIFLLLYLFTLGTN", "protein stability index": 2.46}, {"variant": "QLARLQQLLFVIFLLLYLFTLGTN", "protein stability index": 2.21}, {"variant": "RLARLQQLLFVIFLLLYLFTLGTN", "protein stability index": 2.11}, {"variant": "TLARLQQLLFVIFLLLYLFTLGTN", "protein stability index": 2.85}, {"variant": "VLARLQQLLFVIFLLLYLFTLGTN", "protein stability index": 2.31}, {"variant": "WLARLQQLLFVIFLLLYLFTLGTN", "protein stability index": 1.59}, {"variant": "YLARLQQLLFVIFLLLYLFTLGTN", "protein stability index": 3.24}, {"variant": "SAARLQQLLFVIFLLLYLFTLGTN", "protein stability index": 3.88}, {"variant": "SCARLQQLLFVIFLLLYLFTLGTN", "protein stability index": 2.55}, {"variant": "SDARLQQLLFVIFLLLYLFTLGTN", "protein stability index": 2.06}, {"variant": "SEARLQQLLFVIFLLLYLFTLGTN", "protein stability index": 2.01}, {"variant": "SFARLQQLLFVIFLLLYLFTLGTN", "protein stability index": 2.52}, {"variant": "SGARLQQLLFVIFLLLYLFTLGTN", "protein stability index": 1.4}, {"variant": "SIARLQQLLFVIFLLLYLFTLGTN", "protein stability index": 3.49}, {"variant": "SKARLQQLLFVIFLLLYLFTLGTN", "protein stability index": 2.49}, {"variant": "SMARLQQLLFVIFLLLYLFTLGTN", "protein stability index": 2.45}, {"variant": "SNARLQQLLFVIFLLLYLFTLGTN", "protein stability index": 3.77}, {"variant": "SQARLQQLLFVIFLLLYLFTLGTN", "protein stability index": 2.62}, {"variant": "SRARLQQLLFVIFLLLYLFTLGTN", "protein stability index": 2.48}, {"variant": "SSARLQQLLFVIFLLLYLFTLGTN", "protein stability index": 2.94}, {"variant": "STARLQQLLFVIFLLLYLFTLGTN", "protein stability index": 2.59}, {"variant": "SWARLQQLLFVIFLLLYLFTLGTN", "protein stability index": 1.88}, {"variant": "SYARLQQLLFVIFLLLYLFTLGTN", "protein stability index": 2.34}, {"variant": "SLERLQQLLFVIFLLLYLFTLGTN", "protein stability index": 1.91}, {"variant": "SLFRLQQLLFVIFLLLYLFTLGTN", "protein stability index": 1.86}, {"variant": "SLGRLQQLLFVIFLLLYLFTLGTN", "protein stability index": 1.49}, {"variant": "SLHRLQQLLFVIFLLLYLFTLGTN", "protein stability index": 3.07}, {"variant": "SLKRLQQLLFVIFLLLYLFTLGTN", "protein stability index": 1.51}, {"variant": "SLLRLQQLLFVIFLLLYLFTLGTN", "protein stability index": 2.75}, {"variant": "SLMRLQQLLFVIFLLLYLFTLGTN", "protein stability index": 1.88}, {"variant": "SLNRLQQLLFVIFLLLYLFTLGTN", "protein stability index": 3.31}, {"variant": "SLQRLQQLLFVIFLLLYLFTLGTN", "protein stability index": 3.09}, {"variant": "SLRRLQQLLFVIFLLLYLFTLGTN", "protein stability index": 1.76}, {"variant": "SLTRLQQLLFVIFLLLYLFTLGTN", "protein stability index": 1.91}, {"variant": "SLWRLQQLLFVIFLLLYLFTLGTN", "protein stability index": 2.23}, {"variant": "SLAALQQLLFVIFLLLYLFTLGTN", "protein stability index": 4.04}, {"variant": "SLADLQQLLFVIFLLLYLFTLGTN", "protein stability index": 1.62}, {"variant": "SLAELQQLLFVIFLLLYLFTLGTN", "protein stability index": 3.95}, {"variant": "SLAFLQQLLFVIFLLLYLFTLGTN", "protein stability index": 2.36}, {"variant": "SLAHLQQLLFVIFLLLYLFTLGTN", "protein stability index": 2.36}, {"variant": "SLAILQQLLFVIFLLLYLFTLGTN", "protein stability index": 3.36}, {"variant": "SLAKLQQLLFVIFLLLYLFTLGTN", "protein stability index": 2.19}, {"variant": "SLALLQQLLFVIFLLLYLFTLGTN", "protein stability index": 3.28}, {"variant": "SLAMLQQLLFVIFLLLYLFTLGTN", "protein stability index": 3.67}, {"variant": "SLANLQQLLFVIFLLLYLFTLGTN", "protein stability index": 2.73}, {"variant": "SLAPLQQLLFVIFLLLYLFTLGTN", "protein stability index": 2.24}, {"variant": "SLASLQQLLFVIFLLLYLFTLGTN", "protein stability index": 2.62}, {"variant": "SLAWLQQLLFVIFLLLYLFTLGTN", "protein stability index": 2.28}, {"variant": "SLAYLQQLLFVIFLLLYLFTLGTN", "protein stability index": 2.57}, {"variant": "SLARAQQLLFVIFLLLYLFTLGTN", "protein stability index": 3.68}, {"variant": "SLARCQQLLFVIFLLLYLFTLGTN", "protein stability index": 3.1}, {"variant": "SLARDQQLLFVIFLLLYLFTLGTN", "protein stability index": 3.05}, {"variant": "SLAREQQLLFVIFLLLYLFTLGTN", "protein stability index": 2.27}, {"variant": "SLARFQQLLFVIFLLLYLFTLGTN", "protein stability index": 2.59}, {"variant": "SLARGQQLLFVIFLLLYLFTLGTN", "protein stability index": 3.76}, {"variant": "SLARHQQLLFVIFLLLYLFTLGTN", "protein stability index": 2.62}, {"variant": "SLARIQQLLFVIFLLLYLFTLGTN", "protein stability index": 1.78}, {"variant": "SLARKQQLLFVIFLLLYLFTLGTN", "protein stability index": 2.85}, {"variant": "SLARMQQLLFVIFLLLYLFTLGTN", "protein stability index": 1.41}, {"variant": "SLARNQQLLFVIFLLLYLFTLGTN", "protein stability index": 2}, {"variant": "SLARPQQLLFVIFLLLYLFTLGTN", "protein stability index": 2.02}, {"variant": "SLARRQQLLFVIFLLLYLFTLGTN", "protein stability index": 1.85}, {"variant": "SLARSQQLLFVIFLLLYLFTLGTN", "protein stability index": 3.05}, {"variant": "SLARTQQLLFVIFLLLYLFTLGTN", "protein stability index": 2.28}, {"variant": "SLARVQQLLFVIFLLLYLFTLGTN", "protein stability index": 2.44}, {"variant": "SLARWQQLLFVIFLLLYLFTLGTN", "protein stability index": 3.37}, {"variant": "SLARLAQLLFVIFLLLYLFTLGTN", "protein stability index": 2.61}, {"variant": "SLARLCQLLFVIFLLLYLFTLGTN", "protein stability index": 2.58}, {"variant": "SLARLDQLLFVIFLLLYLFTLGTN", "protein stability index": 3.29}, {"variant": "SLARLEQLLFVIFLLLYLFTLGTN", "protein stability index": 3.01}, {"variant": "SLARLFQLLFVIFLLLYLFTLGTN", "protein stability index": 2.72}, {"variant": "SLARLGQLLFVIFLLLYLFTLGTN", "protein stability index": 2.56}, {"variant": "SLARLHQLLFVIFLLLYLFTLGTN", "protein stability index": 2.35}, {"variant": "SLARLIQLLFVIFLLLYLFTLGTN", "protein stability index": 2.84}, {"variant": "SLARLKQLLFVIFLLLYLFTLGTN", "protein stability index": 3.25}, {"variant": "SLARLLQLLFVIFLLLYLFTLGTN", "protein stability index": 2.97}, {"variant": "SLARLMQLLFVIFLLLYLFTLGTN", "protein stability index": 2.94}, {"variant": "SLARLNQLLFVIFLLLYLFTLGTN", "protein stability index": 2.84}, {"variant": "SLARLPQLLFVIFLLLYLFTLGTN", "protein stability index": 1.38}, {"variant": "SLARLSQLLFVIFLLLYLFTLGTN", "protein stability index": 2.43}, {"variant": "SLARLTQLLFVIFLLLYLFTLGTN", "protein stability index": 2.68}, {"variant": "SLARLVQLLFVIFLLLYLFTLGTN", "protein stability index": 2.45}]}]}
